In paper PMC11674972:
Where “and” joins values, the source holds several entries; their conditions need not be identical. Equal values may be shown once.

How the values were obtained:
[1] = target: FcγRI (Biotinylated Human CD64 Protein, His, Avitag) (human) (UniProt P12314); assay: SPR; Biacore T200; biotinylated FcγRI immobilised on streptavidin chip SA (target 200 RU); AVT 1.875-30 nM injected 60 s at 50 uL/min; 1x HBS-EP pH 7.4, 22 °C; double referenced; heterogeneous ligand kinetics model
[2] = target: FcγRI (Biotinylated Human CD64 Protein, His, Avitag) (human) (UniProt P12314); assay: SPR; Biacore T200; biotinylated FcγRI immobilised on streptavidin chip SA; AVT 1.875-30 nM; 1x HBS-EP pH 7.4, 22 °C; double referenced; steady-state affinity algorithm
[3] = target: FcγRI (Biotinylated Human CD64 Protein, His, Avitag) (human) (UniProt P12314); assay: SPR; Biacore T200; biotinylated FcγRI immobilised on streptavidin chip SA; AVT 1.875-30 nM; 1x HBS-EP pH 7.4, 22 °C; 1:1 Langmuir binding model (fit poorer than the heterogeneous ligand model)

Sequence of UniProt P12314 (P12314 16-292): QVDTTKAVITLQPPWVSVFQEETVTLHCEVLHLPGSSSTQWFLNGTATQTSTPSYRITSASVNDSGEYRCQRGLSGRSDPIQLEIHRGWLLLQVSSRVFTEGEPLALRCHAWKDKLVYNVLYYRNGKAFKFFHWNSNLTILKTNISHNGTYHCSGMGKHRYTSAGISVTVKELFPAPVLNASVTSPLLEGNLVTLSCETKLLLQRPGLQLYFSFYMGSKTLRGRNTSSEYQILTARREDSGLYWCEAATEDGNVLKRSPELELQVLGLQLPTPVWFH

KD, set 1 (heterogeneous ligand model) [1]: 2.67 pM and 1.55 pM and 2.59 pM
KD, set 1 (heterogeneous ligand model), mean [1]: 2.27 pM
ka, set 1 (heterogeneous ligand model) [1]: 333000 M⁻¹ s⁻¹ and 276000 M⁻¹ s⁻¹ and 335000 M⁻¹ s⁻¹
ka, set 1 (heterogeneous ligand model), mean [1]: 315000 M⁻¹ s⁻¹
kd, set 1 (heterogeneous ligand model) [1]: 8.9e-07 s⁻¹ and 4.27e-07 s⁻¹ and 8.67e-07 s⁻¹
kd, set 1 (heterogeneous ligand model), mean [1]: 7.28e-07 s⁻¹
Kd [2]: 13500 pM
Kd [3]: 420 pM
Substance: Bevacizumab (Avastin) (antibody)
